Biological target: RUNX1 (Homo sapiens, UniProt Q01196)
Assay: gcPBM; 2 nM RUNX1
Details: tags: N-terminal GST (pDEST15), kept (PMC6008103); label: surface-attached array probe

Chain of RUNX1 (Q01196 whole entry): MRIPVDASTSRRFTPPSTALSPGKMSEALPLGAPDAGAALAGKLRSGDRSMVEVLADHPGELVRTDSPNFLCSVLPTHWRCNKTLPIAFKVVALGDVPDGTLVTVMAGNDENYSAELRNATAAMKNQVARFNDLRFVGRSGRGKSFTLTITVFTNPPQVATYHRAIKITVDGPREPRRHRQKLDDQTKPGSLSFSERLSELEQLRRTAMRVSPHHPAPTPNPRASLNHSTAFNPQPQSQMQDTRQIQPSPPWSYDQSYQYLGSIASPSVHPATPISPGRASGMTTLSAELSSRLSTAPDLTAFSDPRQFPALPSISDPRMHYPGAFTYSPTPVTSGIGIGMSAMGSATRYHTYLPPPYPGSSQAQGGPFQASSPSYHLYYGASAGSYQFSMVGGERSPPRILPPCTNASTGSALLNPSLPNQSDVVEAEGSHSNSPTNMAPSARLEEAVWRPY

B1: Table S3 B row 878 (dsDNA)
DNA 1: CCCTTTGTGGTCACAAAAACATGTCCTAGTTGAGAT
DNA 2: ATCTCAACTAGGACATGTTTTTGTGACCACAAAGGG
binding signal: 3830 PBM fluorescence, median of replicate spots

B2: Table S3 B row 991 (dsDNA)
DNA 1: TCCCTTACCTTCATGCTGCCACCAAACCACCAAACC
DNA 2: GGTTTGGTGGTTTGGTGGCAGCATGAAGGTAAGGGA
binding signal: 2540 PBM fluorescence, median of replicate spots

B3: Table S3 B row 1118 (dsDNA)
DNA 1: CTCCCACCATCCACCGCAGCCACTTTCGCCCGTCCT
DNA 2: AGGACGGGCGAAAGTGGCTGCGGTGGATGGTGGGAG
binding signal: 3290 PBM fluorescence, median of replicate spots

B4: Table S3 B row 1939 (dsDNA)
DNA 1: TTGGTTCTGTGGTTTCAGGTGTGAGTTCCAGTGTGC
DNA 2: GCACACTGGAACTCACACCTGAAACCACAGAACCAA
binding signal: 2910 PBM fluorescence, median of replicate spots

B5: Table S3 B row 2632 (dsDNA)
DNA 1: TCTGTTTTGTGGGTTCCCTGCCCCCCTTCGGCCTTT
DNA 2: AAAGGCCGAAGGGGGGCAGGGAACCCACAAAACAGA
binding signal: 2250 PBM fluorescence, median of replicate spots

B6: Table S3 B row 3703 (dsDNA)
DNA 1: GGAACACTGCGGTCGGGGCGAGGGAGCTGCCGGGGA
DNA 2: TCCCCGGCAGCTCCCTCGCCCCGACCGCAGTGTTCC
binding signal: 4100 PBM fluorescence, median of replicate spots

B7: Table S3 B row 1232 (dsDNA)
DNA 1: CTCCTCTGTGGTCAGCCATCAATTCATCCCAGCCCG
DNA 2: CGGGCTGGGATGAATTGATGGCTGACCACAGAGGAG
binding signal: 4200 PBM fluorescence, median of replicate spots

B8: Table S3 B row 2615 (dsDNA)
DNA 1: ACCCCCCAACCACAAGGCCCGTTTGCTGCCTCCCCA
DNA 2: TGGGGAGGCAGCAAACGGGCCTTGTGGTTGGGGGGT
binding signal: 2690 PBM fluorescence, median of replicate spots

B9: Table S3 B row 2151 (dsDNA)
DNA 1: CTAAGGCTGTGGTTTGTACCCTAGCAGCAAAGGCAG
DNA 2: CTGCCTTTGCTGCTAGGGTACAAACCACAGCCTTAG
binding signal: 2080 PBM fluorescence, median of replicate spots

B10: Table S3 B row 2473 (dsDNA)
DNA 1: CCCACCCAGCAAGCCGTCCTAACCACAACAGCCCTC
DNA 2: GAGGGCTGTTGTGGTTAGGACGGCTTGCTGGGTGGG
binding signal: 5020 PBM fluorescence, median of replicate spots

B11: Table S3 B row 905 (dsDNA)
DNA 1: CCTCTGCGGTCTCTGCAGCCGTTTGCATTTGCTGAA
DNA 2: TTCAGCAAATGCAAACGGCTGCAGAGACCGCAGAGG
binding signal: 4320 PBM fluorescence, median of replicate spots

B12: Table S3 B row 3962 (dsDNA)
DNA 1: GCCCCTCTGCGGTCGCAGCCCCGCCGGGAGTGTGGC
DNA 2: GCCACACTCCCGGCGGGGCTGCGACCGCAGAGGGGC
binding signal: 4660 PBM fluorescence, median of replicate spots

B13: Table S3 B row 2453 (dsDNA)
DNA 1: GCCCTGTGGTTTTCTGAGGCCCCCGAGGAGGAGGTG
DNA 2: CACCTCCTCCTCGGGGGCCTCAGAAAACCACAGGGC
binding signal: 5060 PBM fluorescence, median of replicate spots

B14: Table S3 B row 2125 (dsDNA)
DNA 1: CAGGCTGCGGTTGAAATGCATCAGCTCTTTCGTGCC
DNA 2: GGCACGAAAGAGCTGATGCATTTCAACCGCAGCCTG
binding signal: 4740 PBM fluorescence, median of replicate spots

B15: Table S3 B row 2775 (dsDNA)
DNA 1: CCTGTTTCGTGCCATCTGCCCTTCCTTTGTGGTCAA
DNA 2: TTGACCACAAAGGAAGGGCAGATGGCACGAAACAGG
binding signal: 2610 PBM fluorescence, median of replicate spots

B16: Table S3 B row 3109 (dsDNA)
DNA 1: ACTCCACCTACCCACAAAACGCACTGCCTCAGAAGC
DNA 2: GCTTCTGAGGCAGTGCGTTTTGTGGGTAGGTGGAGT
binding signal: 2010 PBM fluorescence, median of replicate spots

B17: Table S3 B row 3800 (dsDNA)
DNA 1: GACCCAGATACCACACCTACCCTGCTGCCTTTTCTA
DNA 2: TAGAAAAGGCAGCAGGGTAGGTGTGGTATCTGGGTC
binding signal: 1960 PBM fluorescence, median of replicate spots

B18: Table S3 B row 244 (dsDNA)
DNA 1: GGTCTTTTCTGTGGTTCTGTCACCTCCTTTGTAAGT
DNA 2: ACTTACAAAGGAGGTGACAGAACCACAGAAAAGACC
binding signal: 2300 PBM fluorescence, median of replicate spots

B19: Table S3 B row 1215 (dsDNA)
DNA 1: ACAGAGAAACCACAGCCCTGAGCCTCTTCATGACAT
DNA 2: ATGTCATGAAGAGGCTCAGGGCTGTGGTTTCTCTGT
binding signal: 4430 PBM fluorescence, median of replicate spots

B20: Table S3 B row 1562 (dsDNA)
DNA 1: CCACACCCACAAGGCCAGCCTCAATTCCTCACTCCT
DNA 2: AGGAGTGAGGAATTGAGGCTGGCCTTGTGGGTGTGG
binding signal: 1900 PBM fluorescence, median of replicate spots

B21: Table S3 B row 1201 (dsDNA)
DNA 1: GTGGGCTGTGGTTAGGAGACATGAAGGAGAATGCCA
DNA 2: TGGCATTCTCCTTCATGTCTCCTAACCACAGCCCAC
binding signal: 4150 PBM fluorescence, median of replicate spots

B22: Table S3 B row 1484 (dsDNA)
DNA 1: GTGAAGACCGCAAGTTGGGGCAGATGGCTCCCGACT
DNA 2: AGTCGGGAGCCATCTGCCCCAACTTGCGGTCTTCAC
binding signal: 3440 PBM fluorescence, median of replicate spots

B23: Table S3 B row 1841 (dsDNA)
DNA 1: CTGCCCATCGCGGTTAACTTTTGCGCCTCCTTAAAG
DNA 2: CTTTAAGGAGGCGCAAAAGTTAACCGCGATGGGCAG
binding signal: 3570 PBM fluorescence, median of replicate spots

B24: Table S3 B row 3999 (dsDNA)
DNA 1: ATGGAAATGTGGTTAAGAACTCCCTCTTTTACTAGA
DNA 2: TCTAGTAAAAGAGGGAGTTCTTAACCACATTTCCAT
binding signal: 2760 PBM fluorescence, median of replicate spots

B25: Table S3 B row 1984 (dsDNA)
DNA 1: TAAAACCAAACCACAGATGACACATTGCCTTTCCAC
DNA 2: GTGGAAAGGCAATGTGTCATCTGTGGTTTGGTTTTA
binding signal: 2350 PBM fluorescence, median of replicate spots

B26: Table S3 B row 2767 (dsDNA)
DNA 1: CTTGCGGTCCCATCTTGCTTTTTTCTTGCGCTTTCC
DNA 2: GGAAAGCGCAAGAAAAAAGCAAGATGGGACCGCAAG
binding signal: 2370 PBM fluorescence, median of replicate spots

B27: Table S3 B row 1676 (dsDNA)
DNA 1: GTAAAATGCGGTCGGGTAGAAACCTACTTTCGGTCC
DNA 2: GGACCGAAAGTAGGTTTCTACCCGACCGCATTTTAC
binding signal: 2480 PBM fluorescence, median of replicate spots

B28: Table S3 B row 808 (dsDNA)
DNA 1: TGTGTTAGTGGTTTTCTCTTACGGCAGGCAGTGGGC
DNA 2: GCCCACTGCCTGCCGTAAGAGAAAACCACTAACACA
binding signal: 2040 PBM fluorescence, median of replicate spots

B29: Table S3 B row 2863 (dsDNA)
DNA 1: CCGCCCTGTGGTTTTGGAGCCCTTGCTCCCGGCGCA
DNA 2: TGCGCCGGGAGCAAGGGCTCCAAAACCACAGGGCGG
binding signal: 4640 PBM fluorescence, median of replicate spots

B30: Table S3 B row 2319 (dsDNA)
DNA 1: CCCCGGCAGAAACCGCACCCCACTCCCCATAGCCAC
DNA 2: GTGGCTATGGGGAGTGGGGTGCGGTTTCTGCCGGGG
binding signal: 4670 PBM fluorescence, median of replicate spots

B31: Table S3 B row 2805 (dsDNA)
DNA 1: AGCTTAATGCGGTTGGAGAACACCCTGTCTTATTGA
DNA 2: TCAATAAGACAGGGTGTTCTCCAACCGCATTAAGCT
binding signal: 1930 PBM fluorescence, median of replicate spots

B32: Table S3 B row 1934 (dsDNA)
DNA 1: TCCTCCCCCAACCGCACCCTCAGCTTCATGTTTCAG
DNA 2: CTGAAACATGAAGCTGAGGGTGCGGTTGGGGGAGGA
binding signal: 3950 PBM fluorescence, median of replicate spots

B33: Table S3 B row 646 (dsDNA)
DNA 1: GCTCAAACAATAACCACAACACTTCATGCCTCTCTC
DNA 2: GAGAGAGGCATGAAGTGTTGTGGTTATTGTTTGAGC
binding signal: 5040 PBM fluorescence, median of replicate spots

B34: Table S3 B row 1266 (dsDNA)
DNA 1: AGAAAACCACATTCAATTCTCTTTACACAGGGTGTT
DNA 2: AACACCCTGTGTAAAGAGAATTGAATGTGGTTTTCT
binding signal: 3040 PBM fluorescence, median of replicate spots

B35: Table S3 B row 934 (dsDNA)
DNA 1: TCAGAACCGCAGACGTGGCCCTGCGTGGCTTCAGGC
DNA 2: GCCTGAAGCCACGCAGGGCCACGTCTGCGGTTCTGA
binding signal: 4860 PBM fluorescence, median of replicate spots

B36: Table S3 B row 75 (dsDNA)
DNA 1: GCGTCCTTTGCGGTCTTTTGTCCACGTTCGGGTCAA
DNA 2: TTGACCCGAACGTGGACAAAAGACCGCAAAGGACGC
binding signal: 4170 PBM fluorescence, median of replicate spots

B37: Table S3 B row 2682 (dsDNA)
DNA 1: TGGAAACCACAAGTTATTCCCTGCAAGCCGTAAGCA
DNA 2: TGCTTACGGCTTGCAGGGAATAACTTGTGGTTTCCA
binding signal: 4300 PBM fluorescence, median of replicate spots

B38: Table S3 B row 4026 (dsDNA)
DNA 1: CCTCCTGTGGTTAGTTCCTGCCCGATCAGGCAGGAG
DNA 2: CTCCTGCCTGATCGGGCAGGAACTAACCACAGGAGG
binding signal: 4260 PBM fluorescence, median of replicate spots

B39: Table S3 B row 2476 (dsDNA)
DNA 1: CAGGTCACCGCAGTCCCCACCACTGCCTGTTATTGT
DNA 2: ACAATAACAGGCAGTGGTGGGGACTGCGGTGACCTG
binding signal: 1870 PBM fluorescence, median of replicate spots

B40: Table S3 B row 2861 (dsDNA)
DNA 1: ACGATCCAACCGCATTCACCCCGTAAGCCGCTTCCA
DNA 2: TGGAAGCGGCTTACGGGGTGAATGCGGTTGGATCGT
binding signal: 4500 PBM fluorescence, median of replicate spots

B41: Table S3 B row 1521 (dsDNA)
DNA 1: CTCCGCCTTTCACCTCCTAGTAACCGCCCTCCCTTG
DNA 2: CAAGGGAGGGCGGTTACTAGGAGGTGAAAGGCGGAG
binding signal: 2240 PBM fluorescence, median of replicate spots

B42: Table S3 B row 1822 (dsDNA)
DNA 1: TCCTATTTTTACCGCAGTTGCACAGGCAATGAGGCG
DNA 2: CGCCTCATTGCCTGTGCAACTGCGGTAAAAATAGGA
binding signal: 3180 PBM fluorescence, median of replicate spots

B43: Table S3 B row 2281 (dsDNA)
DNA 1: ACCCCAAACCCACAAACCCACCTGAAGGAACCAACT
DNA 2: AGTTGGTTCCTTCAGGTGGGTTTGTGGGTTTGGGGT
binding signal: 5110 PBM fluorescence, median of replicate spots

B44: Table S3 B row 708 (dsDNA)
DNA 1: CTCCTGCGGTTGCCAGGCAACCGGCCCCGGGAGTTG
DNA 2: CAACTCCCGGGGCCGGTTGCCTGGCAACCGCAGGAG
binding signal: 3720 PBM fluorescence, median of replicate spots

B45: Table S3 B row 2668 (dsDNA)
DNA 1: TACAGTCTCTGTGGTTTACTGAGAGGAGGTGGTTCT
DNA 2: AGAACCACCTCCTCTCAGTAAACCACAGAGACTGTA
binding signal: 2160 PBM fluorescence, median of replicate spots

From article PMC10681739, “High-throughput data and modeling reveal insights into the mechanisms of cooperative DNA-binding by transcription factor proteins”
